How the values were obtained:
[1] = biological target: human NLRP10ΔHD2–tail (aa 4–482), MBP-tagged recombinant protein (human) (UniProt Q86W26); assay: SEC-MALS; MBP-NLRP10 (4–482) at several concentrations; molecular weights determined; no methods told for the SEC-MALS
[2] = biological target: the molecule itself; assay: SEC; Superose 6 Increase 10/300 GL or Superdex 200 Increase 10/300 GL; 25 mM Tris pH 7.5, 300 mM NaCl, 5 mM ß-ME, 5% glycerol; peak 1 (void) and peak 2 collected

Molecule: human NLRP10ΔHD2–tail (aa 4–482), MBP-tagged recombinant protein (from UniProt Q86W26 4-482) (domain or fragment)
- stoichiometry N [1]: 2

B1: human NLRP10 (aa 4–655), MBP-tev-tagged recombinant protein (natural protein, UniProt Q86W26 4-655, looked up)
chain: AKARKPREALLWALSDLEENDFKKLKFYLRDMTLSEGQPPLARGELEGLIPVDLAELLISKYGEKEAVKVVLKGLKVMNLLELVDQLSHICLHDYREVYREHVRCLEEWQEAGVNGRYNQVLLVAKPSSESPESLACPFPEQELESVTVEALFDSGEKPSLAPSLVVLQGSAGTGKTTLARKMVLDWATGTLYPGRFDYVFYVSCKEVVLLLESKLEQLLFWCCGDNQAPVTEILRQPERLLFILDGFDELQRPFEEKLKKRGLSPKESLLHLLIRRHTLPTCSLLITTRPLALRNLEPLLKQARHVHILGFSEEERARYFSSYFTDEKQADRAFDIVQKNDILYKACQVPGICWVVCSWLQGQMERGKVVLETPRNSTDIFMAYVSTFLPPDDDGGCSELSRHRVLRSLCSLAAEGIQHQRFLFEEAELRKHNLDGPRLAAFLSSNDYQLGLAIKKFYSFRHISFQDFFHAMSYLVKEDQSRLGKESRREVQRLLEVKEQEGNDEMTLTMQFLLDISKKDSFSNLELKFCFRISPCLAQDLKHFKEQMESMKHNRTWDLEFSLYEAKIKNLVKGIQMNNVSFKIKHSNEKKSQSQNLFSVKSSLSHGPKEEQKCPSVHGQKEGKDNIAGTQKEASTGKGRGTEETPKNTYI
notes: MBP is followed by a tev site; no cleavage step is described in the methods; also called NLRP10 (4–655); wild-type NLRP10
- binding result [2]: binds

B2: Walker A mutant human NLRP10 (aa 4–655 K179A), MBP-tev-tagged recombinant protein (natural protein, UniProt Q86W26 4-655, looked up)
chain: AKARKPREALLWALSDLEENDFKKLKFYLRDMTLSEGQPPLARGELEGLIPVDLAELLISKYGEKEAVKVVLKGLKVMNLLELVDQLSHICLHDYREVYREHVRCLEEWQEAGVNGRYNQVLLVAKPSSESPESLACPFPEQELESVTVEALFDSGEKPSLAPSLVVLQGSAGTGATTLARKMVLDWATGTLYPGRFDYVFYVSCKEVVLLLESKLEQLLFWCCGDNQAPVTEILRQPERLLFILDGFDELQRPFEEKLKKRGLSPKESLLHLLIRRHTLPTCSLLITTRPLALRNLEPLLKQARHVHILGFSEEERARYFSSYFTDEKQADRAFDIVQKNDILYKACQVPGICWVVCSWLQGQMERGKVVLETPRNSTDIFMAYVSTFLPPDDDGGCSELSRHRVLRSLCSLAAEGIQHQRFLFEEAELRKHNLDGPRLAAFLSSNDYQLGLAIKKFYSFRHISFQDFFHAMSYLVKEDQSRLGKESRREVQRLLEVKEQEGNDEMTLTMQFLLDISKKDSFSNLELKFCFRISPCLAQDLKHFKEQMESMKHNRTWDLEFSLYEAKIKNLVKGIQMNNVSFKIKHSNEKKSQSQNLFSVKSSLSHGPKEEQKCPSVHGQKEGKDNIAGTQKEASTGKGRGTEETPKNTYI
notes: NLRP10, human, residues 4-655, Walker A mutant K179A; MBP is followed by a tev site; no cleavage step is described in the methods; also called NLRP10 K179A; K179A mutant
- binding result [2]: binds

— article PMC13458767, “C-terminal lysine residues localise NLRP10 at lipid droplets and govern NLRP10 oligomer formation” (EMBO Reports, 2026)
